In patent US8404644B2, “Agents with angiogenic and wound healing activity” (Meat & Livestock Australia Limited, priority 2007, dated 2013):

Tests used:
[1] = Stability to heat treatment; assay type: physicochemical
Experimental: (§1) The second study investigated the angiogenic potential of purified crystallin proteins. Briefly, βB3 crystallin was prepared by heating (97-99° C. for 3 minutes, supernatant collected by centrifugation) and was essentially homogenous. Alpha A crystallin and αB crystallin samples were prepared by ion exchange chromatography as described above and were also essentially homogenous. The Wound Heal 1-3 preparations were also tested in this study.

[2] = tested on: rat aortic ring; experiment: Rat aortic ring angiogenesis assay (Example 4.3); assay type: cell-based, Lewis rat; conditions: second study, 200 μg/mL
Experimental: Four separate studies were carried out to determine the angiogenic effect of crystallin preparations. Each sample was assayed in triplicate. A positive control (VEGF) and a vehicle control containing PBS was also run in triplicate. […] Preliminary statistical significance was assessed with an independent Student t-test at α<0.05. Graphical representation of averages +/− standard errors were determined.
The first study investigated the angiogenic potential of bovine fractions prepared by gel filtration analysis as described in Example 3.2. As described in that Example, the alpha fraction contained αA and αB crystallin, the β H fraction contained all β crystallins, the β L1 fractions contained a sub-fraction of beta crystallins and a high content of βB2 crystallin and beta B3 crystallin and the beta L2 fraction contained only βB2 crystallin and βA3 crystallin.
as §1
The third study investigated the angiogenic potential of ovine crystallin proteins compared to their bovine equivalents. Both bovine and ovine crystallin proteins were purified essentially to homogeneity by RP. HPLC using a C4 column, as described below in Example 5. Homogeneity was confirmed by SDS-PAGE. The effect of elastase I treatment of βB2 crystallin was also investigated by comparing the angiogenic potential of intact βB2 crystallin (i.e. undigested) with elastase I digested βB2 crystallin. Elastase I treatment releases the N-terminal and C-terminal extensions of the crystallin protein leaving a globular protein that is monomeric.
In the final study, ovine βB2 crystallin was tested alone or in combination with indoleamine 2,3-dioxygenase (IDO) and ovine alpha B crystallin was tested alone or in combination with tryptophan dioxygenase (TDO)
Briefly, in each study, a single Lewis rat was euthanised and its aorta transferred to a 15 mL Falcon tube containing 10 mL of MCBD-131 medium and stored on ice. After transferring the aorta to a 92×17 mm petri dish containing 10 mL of ice cold MCDB-131, the outer fatty tissue was removed under an Olympus SZ-60 Dissecting microscope. This was undertaken with fibre optic lamp illumination. The aorta was then cut into sequential rings approximately 2 mm in size. Connective tissue was removed with micro scissors and forceps from the outside of the individual rings. Clean rings were stored in a separate petri dish in sterile MCDB-131 medium. Rings were pre-incubated overnight at 37° C. in an atmosphere of 97% air/3% CO2.
To prepare gel sandwiches, 75 mg of fibrinogen was added to 25 mL MCDB-131 medium and shaken gently on a rocker roller for 5 minutes. 3 ml of MCDB-131/fibrinogen solution was added to a 15 mL Falcon tube, followed by 10 μL of thrombin and quickly mixed. A 0.4 mL volume of this fibrinogen-thrombin solution was added to each well on a 24 well plate, 6 wells at a time. Aortic rings were then placed on the setting gel, pushed gently into the gel and left for 45 minutes. These steps were then repeated so each ring was covered with 0.4 mL of gel. Gels were left to set at room temperature. […] The plate was then placed in incubator (37° C., 97% air/3% CO2).
Culture plate were examined daily for signs of infection (fungal growth or yellowing of media) in the wells using an inverted microscope. The growth of microvessels from their perimeters was also observed. Digital photographs of each well were taken seven days after plating using a Pixera PVC-100C digital camera mounted on an OLYMPUS CK-12 microscope and stored on a Macintosh Computer. […]

[3] = molecular target: T1, elastase I (Sus scrofa, UniProt P00772); experiment: Elastase I inhibitory activity of crystallin fractions; assay type: biochemical
T1 construct: purchased Worthington Biochemical Corporation 2280
Experimental: The bovine crystallin fractions were tested for ability to inhibit elastase I activity.

[4] = tested on: full thickness 12 mm wound; experiment: Wound healing assay (Example 3.6); assay type: in vivo, male Lewis rats; conditions: for Wound areas: mg/wound: Wound heal 1 0.01, Wound heal 2 0.1, Wound heal 3 1.0, Aloe vera 20; for wounds larger than wounds on rats receiving buffered saline only: 1.0 mg/wound
Experimental: Thirty male Lewis rats were divided into 5 groups of 6 rats as outlined below in Table 7. Rats were age and weight matched. Rats were permitted rodent diet and water ad libitum throughout the study.
The animals were weighed two days before the start of the trial and weights grouped from lightest to heaviest. Animals were then randomly assigned to groups based on body weights, using 5×5 Latin squares so that group means were as similar as possible.
Approximately 30 minutes before wounding, each animal was given a subcutaneous injection of Temgesic at the base of the neck (0.075 mg/kg body weight). Each animal was anaesthetised using 3% halothane in oxygen. Once the pedal reflexes had been abolished, the animals were shaved from the base of the skull to the hind limb area using electric clippers. The skin on each rat was disinfected using 0.5% chlorhexidine in 70% ethanol. For each animal, the distance from the base of the skull to the top of the hip joint was measured and the wound position marked with a black felt tip pen, 6 cm below the base of the skull along the spinal axis.
Using asceptic techniques a full thickness incision was made at this position using a sterile 12 mm biopsy punch. Any bleeding was removed using cotton swabs. Care was taken that the punch was dry and that no debris (eg., skin, hair) entered the wounds. […] After photography of each wound using a Canon Digital EOS 20D camera with a F2.8 Macro lens, an aliquot of the sample was applied to the wounds on the rats in Groups A, B, D and E using a Gilson Microman CP 100 positive displacement pipette. The biopsy punch was wiped inside with a swab soaked in sterile saline to remove any tissue fluids and/or debris. The punch was then immersed in 70% ethanol before use on the next animal.
For applications and photographs after day 1 the animals were restrained without being anaesthetised.
(§2) Body weights were measured on days 1, 3, 5, 7, 9, 11, 13, 15, 17, 19, 21 and 23 and deviations from original body weights (on day 1) calculated for each animal. On the same days, photographs were taken using a Canon Digital Eos 20D with a F2.8 Macro lens. Photographs were downloaded and wound areas measured using NIH Image J 1.633u software (National Institutes of Health (NIH), Rockville Pike, Bethesda, Md., United States). A laser speckle image was also taken at the same time as each space photograph was taken. Animals were weighed every second day when the photographic record of wound closure rate was also made.
The redness and swelling of each wound were individually scored from visual observation. These were scored on a scale of 0-3 as follows:
Descriptive statistics were evaluated. […] Major analyses were performed on all data points collected. Preliminary analyses were undertaken on control wounds only using t-tests. Univariate ANOVAs were used to assess differences between treatment and controls and samples nested within treatments. A separate ANOVA assessed whether there was a dose response using the treatment samples only. Assumptions for normality were tested using q-q plots on studentized residuals and heterogeneity of variances were tested using Levene's tests. SPSS 11 for Mac OSX was used for assumption testing and statistical analysis.

[5] = Body weight during wound healing assay (Example 3.6); assay type: in vivo, male Lewis rats; conditions: PBS control returned by day 11
Experimental: as §2

[6] = molecular target: T1, elastase I; experiment: Chaperone activity: protection of elastase I from heat denaturation; assay type: biochemical; conditions: boiling water bath for 30 seconds
Experimental: Bovine crystallin fractions were tested for ability to protect the proteases elastase I, trypsin and chymotrypsin from heat denaturation. Briefly, the proteases were heated in a boiling water bath for 30 seconds in the presence or absence of the crystallin fractions.

T1 sequence (P00772 27-266): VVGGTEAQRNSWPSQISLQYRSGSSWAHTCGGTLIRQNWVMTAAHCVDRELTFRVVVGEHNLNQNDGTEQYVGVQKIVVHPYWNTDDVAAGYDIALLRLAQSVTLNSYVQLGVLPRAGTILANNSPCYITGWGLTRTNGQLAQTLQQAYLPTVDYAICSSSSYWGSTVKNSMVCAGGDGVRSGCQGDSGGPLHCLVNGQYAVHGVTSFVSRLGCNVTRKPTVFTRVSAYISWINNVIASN

B1: βB2 crystallin: bovine βB2 crystallin protein (SEQ ID No. 1); in b236 the value is that of Wound Heal 2 (protein)
chain: ASDHQTQAGKPQPLNPKIIIFEQENFQGHSHELNGPCPNLKETGVEKAGSVLVQAGPWVGYEQANCKGEQFVFEKGEYPRWDSWTSSRRTDSLSSLRPIKVDSQEHKITLYENPNFTGKKMEVIDDDVPSFHAHGYQEKVSSVRVQSGTWVGYQYPGYRGLQYLLEKGDYKDSGDFGAPQPQVQSVRRIRDMQWHQRGAFHPSS
modifications: bovine
stability to heat treatment (in words) [1]: unstable to heat treatment | increase in microvessel growth (stimulatory) [2]: 21.83%

B2: Gamma S crystallin: gamma S gel filtration fraction of bovine crystallin extract (protein)
chain: SKAGTKITFFEDKNFQGRHYDSDCDCADFHMYLSRCNSIRVEGGTWAVYERPNFAGYMYILPRGEYPEYQHWMGLNDRLSSCRAVHLSSGGQYKLQIFEKGDFNGQMHETTEDCPSIMEQFHMREVHSCKVLEGAWIFYELPNYRGRQYLLDKKEYRKPVDWGAASPAVQSFRRIVE
elastase I inhibitory activity (in words) [3]: considerable elastase inhibitory activity

B3: Wound Heal 3: bovine αB crystallin, DEAE Sepharose fast flow fractions 37-47; Group D of Example 3 (protein)
chain: MDIAIHHPWIRRPFFPFHSPSRLFDQFFGEHLLESDLFPASTSLSPFYLRPPSFLRAPSWIDTGLSEMRLEKDRFSVNLDVKHFSPEELKVKVLGDVIEVHGKHEERQDEHGFISREFHRKYRIPADVDPLAITSSLSSDGVLTVNGPRKQASGPERTIPITREEKPAVTAAPKK
Wound areas ([4]; Day 1 (=100)): 100 | Wound areas ([4]; Day 3): 93 | Wound areas ([4]; Day 5): 82 | Wound areas ([4]; Day 7): 76 | Wound areas ([4]; Day 9): 58 | Wound areas ([4]; Day 11): 34 | Wound areas ([4]; Day 13): 23 | Wound areas ([4]; Day 15): 15 | Wound areas ([4]; Day 17): 9 | Wound areas ([4]; Day 19): 5 | Wound areas ([4]; Day 21): 2.5 | Wound areas ([4]; Day 23): 1.4 | wounds larger than wounds on rats receiving buffered saline only ([4]; day 3): 8.8% | wounds larger than wounds on rats receiving buffered saline only ([4]; day 7): 7.7% | wounds larger than wounds on rats receiving buffered saline only ([4]; day 11): 28.7% | healing rate compared to Control group (PBS), in words ([4]; rat, in vivo): inhibited the rate of healing | day by which mean body weight had returned to the starting (pre-wounding) weight [5]: ≤ 12 days | chaperone activity: protection of elastase I from heat denaturation (in words) [6]: Chaperone activity was observed | % of Control ([2]; microvessel growth): 93.09%
